Earlier results as cited in article PMC8896763.

What was measured:
CD80 = CD80 (UniProt P33681)
CD48 (Rattus norvegicus) = CD48 (Rattus norvegicus) (UniProt P10252)
PSGL-1 (Homo sapiens) = PSGL-1 (Homo sapiens) (UniProt Q14242)
CD58 (Homo sapiens) = CD58 (Homo sapiens) (UniProt P19256)
UniProt P19256, sequence (P19256 29-215): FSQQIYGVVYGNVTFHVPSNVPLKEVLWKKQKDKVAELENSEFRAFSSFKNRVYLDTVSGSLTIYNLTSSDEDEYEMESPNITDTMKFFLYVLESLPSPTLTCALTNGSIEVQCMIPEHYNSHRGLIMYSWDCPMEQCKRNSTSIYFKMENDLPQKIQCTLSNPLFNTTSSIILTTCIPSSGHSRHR

UniProt P33681, sequence (P33681 35-242): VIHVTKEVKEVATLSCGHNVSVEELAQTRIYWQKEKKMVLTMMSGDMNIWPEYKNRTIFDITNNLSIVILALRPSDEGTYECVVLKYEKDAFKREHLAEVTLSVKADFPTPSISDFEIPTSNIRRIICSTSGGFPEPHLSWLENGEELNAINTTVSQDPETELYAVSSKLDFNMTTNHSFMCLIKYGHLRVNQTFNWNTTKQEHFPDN
UniProt Q14242, sequence (Q14242 42-320): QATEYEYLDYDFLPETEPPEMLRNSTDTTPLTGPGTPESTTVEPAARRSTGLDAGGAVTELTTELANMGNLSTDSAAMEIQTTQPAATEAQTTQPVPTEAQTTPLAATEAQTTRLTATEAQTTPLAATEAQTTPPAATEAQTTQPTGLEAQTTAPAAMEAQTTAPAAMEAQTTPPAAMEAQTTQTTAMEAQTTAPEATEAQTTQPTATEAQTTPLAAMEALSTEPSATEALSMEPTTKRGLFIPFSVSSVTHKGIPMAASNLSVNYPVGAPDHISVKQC
UniProt P10252, sequence (P10252 23-217): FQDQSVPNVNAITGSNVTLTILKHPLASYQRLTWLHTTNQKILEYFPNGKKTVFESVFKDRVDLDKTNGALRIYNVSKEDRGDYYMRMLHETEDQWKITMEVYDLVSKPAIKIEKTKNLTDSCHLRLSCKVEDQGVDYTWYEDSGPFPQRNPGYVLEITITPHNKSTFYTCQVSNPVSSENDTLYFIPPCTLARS

## CD28 (from UniProt P10747)
CD80
  Kd: 2000 nM

## CD2 (from UniProt P08921)
CD48 (Rattus norvegicus)
  Kd: 60 µM

## P-selectin (from UniProt P16109)
PSGL-1 (Homo sapiens)
  Kd: 300 nM

## CD2 (from UniProt P06729)
CD58 (Homo sapiens)
  Kd: 10 µM
